Measured values taken from doi:10.1101/2021.06.17.448874.
Several values for one entry are separate records, joined by “and”; a condition that tells them apart may be missing. Equal entries are not always repeated.

Columns and labels:
[1] = biological target: microtubules polymerised from porcine brain tubulin, taxol-stabilised (porcine) (UniProt P02550); assay: co-sedimentation
[2] = biological target: subtilisin-digested microtubules (lacking E-hooks) (porcine) (UniProt P02550); assay: co-sedimentation

| shift to pellet (%) [1] | shift to pellet (%) [2] [%] | Substance |
| --- | --- | --- |
| 56.1% and 41.6% | – | MBP-MESP-1 (meiotic spindle 1) (natural protein) |
| 52.7% and 50.8% | 26.7 | KLP-18 C-stalk (C-terminal half of the KLP-18 stalk) (domain or fragment) |
